The target in the assay is recombinant scavenger receptor cysteine-rich domain 1 of Gp340 (salivary agglutinin), expressed in insect cells (UniProt Q9UGM3). The assay can be described thus: SPR; Biacore T200; iSRCR1 immobilised on a CM5 chip by amine coupling; analyte GtfB-CD 2-8 uM in 20 mM HEPES pH 7.4, 150 mM NaCl, 1 mM CaCl2, 20 ul/min; each concentration in triplicate; kinetic fit with Biacore Insight Evaluation software. Background: Surface plasmon resonance follows binding to a sensor surface in real time, without labels.
recombinant scavenger receptor cysteine-rich domain 1 of Gp340 (salivary agglutinin), expressed in insect cells, sequence (Q9UGM3 20-2413): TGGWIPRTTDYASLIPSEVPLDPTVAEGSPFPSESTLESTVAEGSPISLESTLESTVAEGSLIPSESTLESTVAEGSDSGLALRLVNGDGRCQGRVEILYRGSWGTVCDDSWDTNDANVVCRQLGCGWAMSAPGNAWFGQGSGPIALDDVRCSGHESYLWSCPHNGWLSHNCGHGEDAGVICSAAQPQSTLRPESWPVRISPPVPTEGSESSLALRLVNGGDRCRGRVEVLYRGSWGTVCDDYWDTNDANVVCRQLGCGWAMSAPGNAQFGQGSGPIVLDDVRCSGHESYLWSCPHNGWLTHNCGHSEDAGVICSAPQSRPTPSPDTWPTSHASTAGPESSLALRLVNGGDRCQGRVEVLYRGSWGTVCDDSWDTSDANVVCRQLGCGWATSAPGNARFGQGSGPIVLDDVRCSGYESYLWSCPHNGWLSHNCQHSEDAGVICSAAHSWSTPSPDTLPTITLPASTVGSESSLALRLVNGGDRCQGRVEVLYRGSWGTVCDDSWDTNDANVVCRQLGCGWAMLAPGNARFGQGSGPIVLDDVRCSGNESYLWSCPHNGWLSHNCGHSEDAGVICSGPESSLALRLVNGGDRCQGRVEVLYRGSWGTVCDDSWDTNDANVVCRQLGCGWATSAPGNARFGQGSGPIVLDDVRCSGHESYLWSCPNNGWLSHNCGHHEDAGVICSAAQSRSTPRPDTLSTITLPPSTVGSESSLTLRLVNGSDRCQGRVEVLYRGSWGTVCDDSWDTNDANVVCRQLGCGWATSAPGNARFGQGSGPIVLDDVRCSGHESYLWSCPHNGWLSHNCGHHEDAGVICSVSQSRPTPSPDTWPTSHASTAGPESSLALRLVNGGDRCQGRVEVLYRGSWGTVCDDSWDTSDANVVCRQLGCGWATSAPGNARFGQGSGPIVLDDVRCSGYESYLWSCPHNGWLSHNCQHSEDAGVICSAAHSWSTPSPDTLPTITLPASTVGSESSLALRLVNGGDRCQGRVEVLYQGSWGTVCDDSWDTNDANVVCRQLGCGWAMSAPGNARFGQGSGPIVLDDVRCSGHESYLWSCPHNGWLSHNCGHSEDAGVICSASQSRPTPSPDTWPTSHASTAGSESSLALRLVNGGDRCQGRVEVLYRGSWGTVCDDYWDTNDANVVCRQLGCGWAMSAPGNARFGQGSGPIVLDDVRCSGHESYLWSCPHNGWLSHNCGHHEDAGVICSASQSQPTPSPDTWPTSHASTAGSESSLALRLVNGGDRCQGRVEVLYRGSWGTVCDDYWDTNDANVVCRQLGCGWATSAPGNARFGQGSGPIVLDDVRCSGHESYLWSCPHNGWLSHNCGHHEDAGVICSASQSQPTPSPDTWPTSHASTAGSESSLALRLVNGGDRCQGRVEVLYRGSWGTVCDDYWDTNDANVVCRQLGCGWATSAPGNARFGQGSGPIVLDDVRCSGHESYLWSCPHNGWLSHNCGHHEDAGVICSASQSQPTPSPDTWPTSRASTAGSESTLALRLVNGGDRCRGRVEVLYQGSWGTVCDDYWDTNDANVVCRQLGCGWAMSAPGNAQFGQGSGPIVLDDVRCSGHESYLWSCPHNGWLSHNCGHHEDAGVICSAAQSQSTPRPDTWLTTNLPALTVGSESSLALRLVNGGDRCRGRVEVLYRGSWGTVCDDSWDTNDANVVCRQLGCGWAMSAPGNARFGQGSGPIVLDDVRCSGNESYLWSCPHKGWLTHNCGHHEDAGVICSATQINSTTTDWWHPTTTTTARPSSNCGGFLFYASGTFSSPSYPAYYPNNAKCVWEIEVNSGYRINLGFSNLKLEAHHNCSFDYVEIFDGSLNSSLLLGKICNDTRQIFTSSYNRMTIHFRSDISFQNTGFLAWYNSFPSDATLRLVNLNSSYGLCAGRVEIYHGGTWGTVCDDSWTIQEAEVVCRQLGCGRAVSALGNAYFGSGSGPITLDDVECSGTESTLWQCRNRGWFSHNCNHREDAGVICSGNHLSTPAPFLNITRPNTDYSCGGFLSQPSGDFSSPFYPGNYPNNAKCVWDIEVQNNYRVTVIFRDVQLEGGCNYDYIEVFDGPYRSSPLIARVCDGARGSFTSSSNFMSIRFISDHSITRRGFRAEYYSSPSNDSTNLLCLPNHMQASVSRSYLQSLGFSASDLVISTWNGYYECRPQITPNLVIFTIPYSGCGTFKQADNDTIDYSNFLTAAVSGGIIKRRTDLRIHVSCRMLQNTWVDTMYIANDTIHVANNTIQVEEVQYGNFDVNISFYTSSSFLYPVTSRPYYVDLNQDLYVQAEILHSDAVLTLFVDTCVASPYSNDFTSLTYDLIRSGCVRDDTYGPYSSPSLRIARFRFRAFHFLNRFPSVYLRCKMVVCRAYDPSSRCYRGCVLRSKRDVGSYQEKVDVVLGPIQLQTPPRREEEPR

The text below walks through data of article PMC10167749.

B1: catalytic domain of Streptococcus mutans (UA159) glucosyltransferase GtfB, residues 191-1051 (domain or fragment)
chain: LHFDETGAYTDTSIDTVNKDIVTTRSNLYKKYNQVYDRSAQSFEHVDHYLTAESWYRPKYILKDGKTWTQSTEKDFRPLLMTWWPSQETQRQYVNYMNAQLGINKTYDDTSNQLQLNIAAATIQAKIEAKITTLKNTDWLRQTISAFVKTQSAWNSDSEKPFDDHLQNGAVLYDNEGKLTPYANSNYRILNRTPTNQTGKKDPRYTADNTIGGYEFLLANDVDNSNPVVQAEQLNWLHFLMNFGNIYANDPDANFDSIRVDAVDNVDADLLQIAGDYLKAAKGIHKNDKAANDHLSILEAWSDNDTPYLHDDGDNMINMDNKLRLSLLFSLAKPLNQRSGMNPLITNSLVNRTDDNAETAAVPSYSFIRAHDSEVQDLIRDIIKAEINPNVVGYSFTMEEIKKAFEIYNKDLLATEKKYTHYNTALSYALLLTNKSSVPRVYYGDMFTDDGQYMAHKTINYEAIETLLKARIKYVSGGQAMRNQQVGNSEIITSVRYGKGALKATDTGDRTTRTSGVAVIEGNNPSLRLKASDRVVVNMGAAHKNQAYRPLLLTTDNGIKAYHSDQEAAGLVRYTNDRGELIFTAADIKGYANPQVSGYLGVWVPVGAAADQDVRVAASTAPSTDGKSVHQNAALDSRVMFEGFSNFQAFATKKEEYTNVVIAKNVDKFAEWGVTDFEMAPQYVSSTDGSFLDSVIQNGYAFTDRYDLGISKPNKYGTADDLVKAIKALHSKGIKVMADWVPDQMYAFPEKEVVTATRVDKFGKPVEGSQIKSVLYVADSKSSGKDQQAKYGGAFLEELQAKYPELFARKQISTGVPMDPSVKIKQWSAKYFNGTNILGRGAGYVLKDQATNTYFNISDNK
One may read the koff as the rate constant with which the complex falls apart. A word on the kon: it is the second-order rate constant of association. With B1, the koff is 0.00152 s⁻¹ and the kon was 2990 M⁻¹ s⁻¹.
